Publication PMC2132603

Biological target: T1, Sec17p (S. cerevisiae (endogenous in yeast vacuoles)), P32602
T1 chain: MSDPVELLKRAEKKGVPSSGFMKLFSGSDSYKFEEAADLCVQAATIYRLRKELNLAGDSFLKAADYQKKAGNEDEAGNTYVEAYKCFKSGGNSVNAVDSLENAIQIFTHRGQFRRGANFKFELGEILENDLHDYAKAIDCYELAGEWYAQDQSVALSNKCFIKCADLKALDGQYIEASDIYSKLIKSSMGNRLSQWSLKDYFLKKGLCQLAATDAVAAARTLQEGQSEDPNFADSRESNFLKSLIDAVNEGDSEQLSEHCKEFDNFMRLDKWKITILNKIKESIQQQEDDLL
Assay: co-IP
Conditions: remark: other sources report otherwise

percent of Vam3p coprecipitated with Sec17p: > 50%
B1: Vam3p, Q12241 1-283 (natural protein)
chain: MSFFDIEAQSSKGNSQQEPQFSTNQKTKELSNLIETFAEQSRVLEKECTKIGSKRDSKELRYKIETELIPNCTSVRDKIESNILIHQNGKLSADFKNLKTKYQSLQQSYNQRKSLFPLKTPISPGTSKERKDIHPRTEAVRQDPESSYISIKVNEQSPLLHNEGQHQLQLQEEQEQQQQGLSQEELDFQTIIHQERSQQIGRIHTAVQEVNAIFHQLGSLVKEQGEQVTTIDENISHLHDNMQNANKQLTRADQHQRDRNKCGKVTLIIIIVVCMVVLLAVLS
